# Source: PMC12216052 (2025)
# T1: ACVR1B (Homo sapiens (Human), UniProt P36896)
# T1 chain: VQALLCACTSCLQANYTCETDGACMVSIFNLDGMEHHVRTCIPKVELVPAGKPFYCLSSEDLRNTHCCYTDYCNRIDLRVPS
# B1: DLK1 (protein)
# chain: VANSCTPNPCENDGVCTDIGGDFRCRCPAGFIDKTCSRPVTNCASSPCQNGGTCLQHTQVSYECLCKPEFTGLTCVKK
# How the values were obtained:
# ACVR2A = ACVR2A (Homo sapiens (Human), UniProt P27037); experiment: SPR steady state, receptor-Fc on chip, monomer analyte
# ACVR1B = biological target: T1, ACVR1B; experiment: as above
# ACVR2A, sequence (P27037 25-118): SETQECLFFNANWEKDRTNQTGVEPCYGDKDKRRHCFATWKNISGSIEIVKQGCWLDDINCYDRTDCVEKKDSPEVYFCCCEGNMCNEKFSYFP
binder,measurement,setting,value
B1,Kd,ACVR2A,> 10 µM
same,Kd,ACVR1B,> 10 µM
